Assay results published in article PMC3257248, “Wnt4 Participates in the Formation of Vertebrate Neuromuscular Junction” (PLoS ONE, 2012).

Target: T1, MuSK (muscle specific kinase), full length (rat, UniProt Q62838 22-868)
T1 sequence (looked up): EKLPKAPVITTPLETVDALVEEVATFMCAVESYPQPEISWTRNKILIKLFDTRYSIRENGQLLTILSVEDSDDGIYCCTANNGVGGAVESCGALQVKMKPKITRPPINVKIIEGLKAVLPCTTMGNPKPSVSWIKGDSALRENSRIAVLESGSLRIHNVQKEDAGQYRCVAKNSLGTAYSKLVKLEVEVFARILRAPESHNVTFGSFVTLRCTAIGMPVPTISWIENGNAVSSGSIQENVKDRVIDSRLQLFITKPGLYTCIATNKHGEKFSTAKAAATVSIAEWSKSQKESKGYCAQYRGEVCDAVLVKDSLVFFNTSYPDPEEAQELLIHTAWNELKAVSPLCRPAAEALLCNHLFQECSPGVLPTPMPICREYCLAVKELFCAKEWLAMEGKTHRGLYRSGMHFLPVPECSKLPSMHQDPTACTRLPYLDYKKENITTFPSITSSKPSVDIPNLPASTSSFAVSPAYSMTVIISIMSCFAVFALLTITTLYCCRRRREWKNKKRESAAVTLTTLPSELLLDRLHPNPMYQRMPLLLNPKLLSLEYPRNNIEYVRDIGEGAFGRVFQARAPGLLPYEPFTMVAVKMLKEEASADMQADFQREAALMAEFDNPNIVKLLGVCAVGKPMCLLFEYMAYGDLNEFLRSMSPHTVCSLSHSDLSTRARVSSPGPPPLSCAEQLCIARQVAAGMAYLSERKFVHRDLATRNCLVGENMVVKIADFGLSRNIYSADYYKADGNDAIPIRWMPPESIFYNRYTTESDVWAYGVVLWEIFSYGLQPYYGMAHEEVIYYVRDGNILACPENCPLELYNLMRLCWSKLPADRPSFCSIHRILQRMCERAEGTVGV
Assay: cell-based or functional assay

MuSK tyrosine phosphorylation (pTyr blot of HA immunoprecipitates, +Wnt4/-Wnt4 ratio) in HEK 293T cells cotransfected with HA-MuSK with or without Wnt4-HA: 2 fold
B1: HA-tagged Wnt4 (ligand, UniProt P22724 23-351, looked up)
chain: SNWLYLAKLSSVGSISEEETCEKLKGLIQRQVQMCKRNLEVMDSVRRGAQLAIEECQYQFRNRRWNCSTLDSLPVFGKVVTQGTREAAFVYAISSAGVAFAVTRACSSGELEKCGCDRTVHGVSPQGFQWSGCSDNIAYGVAFSQSFVDVRERSKGASSSRALMNLHNNEAGRKAILTHMRVECKCHGVSGSCEVKTCWRAVPPFRQVGHALKEKFDGATEVEPRRVGSSRALVPRNAQFKPHTDEDLVYLEPSPDFCEQDIRSGVLGTRGRTCNKTSKAIDGCELLCCGRGFHTAQVELAERCGCRFHWCCFVKCRQCQRLVEMHTCR
